Results as given in patent publication US20250059527A1 (UNIVERSITY OF DUNDEE, published 2025).

Biological target: α-synuclein (human, UniProt P37840 1-140)
Experiment: immunofluorescence microscopy, co-localisation in SK-MEL13 cells
Description: For immunofluorescence imaging, cells were first seeded onto 16 mm diameter circular sterile coverslips in 12-well culture plates and left to adhere overnight. All coverslips were sterilised with 100% (v/v) ethanol prior to use and allowed to dry. Cells were washed twice in PBS before being fixed in 4% (w/v) paraformaldehyde (diluted in PBS) at room temperature for 10 minutes. PFA was removed and the coverslips were washed twice in PBS. Coverslips were then permeabilised with 0.2% (v/v) NP40 in PBS for 3 min. Cells were then blocked by washing twice and a 15-minute incubation in 1% (w/v) BSA/PBS. Coverslips were then incubated for 1.5 hr at room temperature with a 1:100 dilution of anti-α-synuclein antibody (610786, BD Biosciences) in a humidified chamber. They were then washed 3 times (for 10 minutes each) in 0.2% (w/v) BSA/PBS before being incubated with goat anti-mouse-IgG alexa-fluor 594 conjugated secondary antibody (A-11005, Thermo Fisher Scientific) at a dilution of 1:500 for 1 hour at 37° C., protected from light. Coverslips were then washed three times in 0.2% (w/v) BSA/PBS for 10 minutes each with the first wash containing a 1:15,000 dilution of DAPI. […]
The interaction of NbSyn87 and alpha-synuclein was determined in extracts and cells, with alpha-synuclein knockout cells included as controls for a clean alpha-synuclein IP. […]

B1: GFP-NbSYN87 (VHH)
VHH: QVQLQESGGGSVQTGGSLRLSCVASGYSGYMAWFRQAPGKEREGIAAIYRGDKITYYAHSVQGRFTISQANAKNTVYLLMNSLKPEDTAIYYCAARRVVADSPLLSKTYAYWGQGTQVTVSS
notes: Transiently transfected into SK-MEL13 cells; also called GFP-tagged NbSyn87; not shown: GFP tag
- binding result: binds
